system: Escherichia coli TOP10; experiment: shrunken log2 fold change of peptide-encoding DNA abundance (4.5 h post-induction vs induction); higher = less antimicrobial activity (less host growth inhibition); conditions: time post-induction: 4.5 h; library: site-saturation at positions 5, 18, 19, 20
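Further: peptides expressed intracellularly from a pBAD plasmid library in pooled LB shake-flask culture, induced with 0.3% L-arabinose, DNA abundance read by NGS, three biological replicates, DESeq2 with apeglm shrinkage.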

RRIRQRPPRLPRPRPRPCGPPRP and RRIRARPPRLPRPRPRPHCLPRP are within 0.2 log units of each other in “shrunken log2 fold change” value: -0.141 for the first, -0.116 for the second.

RRIRCRPPRLPRPRPRPMMTPRP and RRIRFRPPRLPRPRPRPGKSPRP are within 0.2 log units of each other in “shrunken log2 fold change” value: 0.00323 for the first, 0.0865 for the second.

First: RRIRTRPPRLPRPRPRPKYTPRP
Second: RRIRKRPPRLPRPRPRPDCPPRP
The “shrunken log2 fold change” value of the first is lower: -0.508 for the first, 0.178 for the second.

First: RRIRGRPPRLPRPRPRPRHWPRP
Second: RRIRIRPPRLPRPRPRPTKVPRP
The “shrunken log2 fold change” value of the first is higher: 0.439 for the first, -0.257 for the second.

RRIRNRPPRLPRPRPRPDENPRP and RRIRRRPPRLPRPRPRPYCPPRP are within 0.2 log units of each other in “shrunken log2 fold change” value: 0.00254 for the first, -0.187 for the second.

Compared with RRIRTRPPRLPRPRPRPMVIPRP, RRIRGRPPRLPRPRPRPVHQPRP is higher in “shrunken log2 fold change” value: -0.0894 for the first, 0.228 for the second.

RRIRERPPRLPRPRPRPNHLPRP and RRIRQRPPRLPRPRPRPWNEPRP are within 0.2 log units of each other in “shrunken log2 fold change” value: 0.0486 for the first, -0.139 for the second.

First: RRIRHRPPRLPRPRPRPHRKPRP
Second: RRIRLRPPRLPRPRPRPPAFPRP
The “shrunken log2 fold change” value of the first is lower: -0.351 for the first, 0.144 for the second.

First: RRIRLRPPRLPRPRPRPVSMPRP
Second: RRIRKRPPRLPRPRPRPQIHPRP
The “shrunken log2 fold change” value of the first is lower: -0.302 for the first, 0.0287 for the second.

Going from RRIRERPPRLPRPRPRPYYCPRP to RRIRKRPPRLPRPRPRPVRLPRP, the “shrunken log2 fold change” value rises from -0.913 to 0.203.

RRIRWRPPRLPRPRPRPCHGPRP and RRIRMRPPRLPRPRPRPRCKPRP are within 0.2 log units of each other in “shrunken log2 fold change” value: 0.0694 for the first, 0.198 for the second.

Going from RRIRLRPPRLPRPRPRPTCRPRP to RRIRDRPPRLPRPRPRPLATPRP, the “shrunken log2 fold change” value rises from 0.187 to 1.1.

Going from RRIRARPPRLPRPRPRPGPLPRP to RRIRYRPPRLPRPRPRPEKDPRP, the “shrunken log2 fold change” value falls from 0.429 to 0.0236.

First: RRIRVRPPRLPRPRPRPNRGPRP
Second: RRIRVRPPRLPRPRPRPITNPRP
The “shrunken log2 fold change” value of the first is higher: 0.108 for the first, -0.219 for the second.

RRIRSRPPRLPRPRPRPRNPPRP and RRIRTRPPRLPRPRPRPDFFPRP are within 0.2 log units of each other in “shrunken log2 fold change” value: 0.103 for the first, 0.175 for the second.

RRIRSRPPRLPRPRPRPGNRPRP and RRIRSRPPRLPRPRPRPQTGPRP are within 0.2 log units of each other in “shrunken log2 fold change” value: -0.00644 for the first, 0.0318 for the second.

Going from RRIRLRPPRLPRPRPRPFSLPRP to RRIRHRPPRLPRPRPRPSYIPRP, the “shrunken log2 fold change” value falls from -0.127 to -1.77.

RRIRDRPPRLPRPRPRPLTFPRP and RRIRMRPPRLPRPRPRPLTLPRP are within 0.2 log units of each other in “shrunken log2 fold change” value: -0.212 for the first, -0.1 for the second.

RRIRHRPPRLPRPRPRPNRKPRP and RRIRRRPPRLPRPRPRPCSEPRP are within 0.2 log units of each other in “shrunken log2 fold change” value: 0.0857 for the first, -0.0216 for the second.

First: RRIRTRPPRLPRPRPRPPKFPRP
Second: RRIRYRPPRLPRPRPRPAGKPRP
The “shrunken log2 fold change” value of the first is higher: -0.025 for the first, -0.237 for the second.

RRIRKRPPRLPRPRPRPYGIPRP and RRIRPRPPRLPRPRPRPNLYPRP are within 0.2 log units of each other in “shrunken log2 fold change” value: -0.329 for the first, -0.276 for the second.

First: RRIRFRPPRLPRPRPRPNVKPRP
Second: RRIRERPPRLPRPRPRPCTRPRP
The “shrunken log2 fold change” value of the first is lower: -0.574 for the first, 0.0517 for the second.

Going from RRIRRRPPRLPRPRPRPNEKPRP to RRIRQRPPRLPRPRPRPYFGPRP, the “shrunken log2 fold change” value falls from -0.023 to -0.305.

RRIRTRPPRLPRPRPRPTLCPRP and RRIRHRPPRLPRPRPRPDSHPRP are within 0.2 log units of each other in “shrunken log2 fold change” value: 0.148 for the first, -0.0191 for the second.

First: RRIRSRPPRLPRPRPRPVWVPRP
Second: RRIRWRPPRLPRPRPRPICIPRP
The “shrunken log2 fold change” value of the first is higher: 0.351 for the first, -0.191 for the second.

RRIRTRPPRLPRPRPRPKNWPRP and RRIRCRPPRLPRPRPRPIWEPRP are within 0.2 log units of each other in “shrunken log2 fold change” value: 0.183 for the first, 0.0488 for the second.

First: RRIRERPPRLPRPRPRPATCPRP
Second: RRIRNRPPRLPRPRPRPMCEPRP
The “shrunken log2 fold change” value of the first is lower: -0.292 for the first, -0.0162 for the second.

First: RRIRYRPPRLPRPRPRPYTNPRP
Second: RRIRKRPPRLPRPRPRPAPGPRP
The “shrunken log2 fold change” value of the first is lower: -1.35 for the first, 0.637 for the second.

First: RRIRTRPPRLPRPRPRPNHHPRP
Second: RRIRARPPRLPRPRPRPRPVPRP
The “shrunken log2 fold change” value of the first is lower: -0.687 for the first, 0.771 for the second.

First: RRIRSRPPRLPRPRPRPLTNPRP
Second: RRIRSRPPRLPRPRPRPTVAPRP
The “shrunken log2 fold change” value of the first is lower: -0.101 for the first, 0.243 for the second.

RRIRCRPPRLPRPRPRPMKNPRP and RRIRYRPPRLPRPRPRPCWLPRP are within 0.2 log units of each other in “shrunken log2 fold change” value: -0.128 for the first, 0.0283 for the second.

RRIRTRPPRLPRPRPRPSPFPRP and RRIRNRPPRLPRPRPRPKESPRP are within 0.2 log units of each other in “shrunken log2 fold change” value: 0.133 for the first, 0.149 for the second.

Compared with RRIRCRPPRLPRPRPRPFLSPRP, RRIRKRPPRLPRPRPRPKFCPRP is higher in “shrunken log2 fold change” value: -0.28 for the first, 0.0649 for the second.

RRIRYRPPRLPRPRPRPRCDPRP and RRIRKRPPRLPRPRPRPIYDPRP are within 0.2 log units of each other in “shrunken log2 fold change” value: -0.207 for the first, -0.0349 for the second.

RRIRCRPPRLPRPRPRPQVRPRP and RRIRGRPPRLPRPRPRPWHDPRP are within 0.2 log units of each other in “shrunken log2 fold change” value: -0.236 for the first, -0.178 for the second.

Compared with RRIRCRPPRLPRPRPRPCCFPRP, RRIRDRPPRLPRPRPRPGCLPRP is higher in “shrunken log2 fold change” value: -0.155 for the first, 0.589 for the second.

First: RRIRHRPPRLPRPRPRPCGCPRP
Second: RRIRMRPPRLPRPRPRPLPWPRP
The “shrunken log2 fold change” value of the first is lower: -0.0378 for the first, 1.74 for the second.

RRIRLRPPRLPRPRPRPPITPRP and RRIRSRPPRLPRPRPRPFMVPRP are within 0.2 log units of each other in “shrunken log2 fold change” value: -0.213 for the first, -0.337 for the second.

RRIRARPPRLPRPRPRPNKPPRP and RRIRPRPPRLPRPRPRPICAPRP are within 0.2 log units of each other in “shrunken log2 fold change” value: -0.0887 for the first, 0.0637 for the second.

Compared with RRIRCRPPRLPRPRPRPQIVPRP, RRIRKRPPRLPRPRPRPVNRPRP is higher in “shrunken log2 fold change” value: -0.345 for the first, 0.0352 for the second.

First: RRIRPRPPRLPRPRPRPMSDPRP
Second: RRIRGRPPRLPRPRPRPNKQPRP
The “shrunken log2 fold change” value of the first is lower: -0.195 for the first, 0.326 for the second.

Going from RRIRVRPPRLPRPRPRPVAFPRP to RRIRMRPPRLPRPRPRPKMKPRP, the “shrunken log2 fold change” value rises from -0.0455 to 1.45.

RRIRFRPPRLPRPRPRPSAKPRP and RRIRARPPRLPRPRPRPWDDPRP are within 0.2 log units of each other in “shrunken log2 fold change” value: 0.319 for the first, 0.177 for the second.

Compared with RRIRTRPPRLPRPRPRPHSHPRP, RRIRDRPPRLPRPRPRPQTKPRP is higher in “shrunken log2 fold change” value: -0.626 for the first, -0.115 for the second.

RRIRHRPPRLPRPRPRPTDGPRP and RRIRIRPPRLPRPRPRPHKRPRP are within 0.2 log units of each other in “shrunken log2 fold change” value: -0.0791 for the first, -0.169 for the second.

With RRIRKRPPRLPRPRPRPIMYPRP the “shrunken log2 fold change” value was 0.0532.

— the supplement of paper PMC9112550, “Optimization of the antimicrobial peptide Bac7 by deep mutational scanning” (BMC Biology, 2022)
